In patent US20150329594A1 (University of California, published 2015):
Values joined by “and” are separate entries in the source; they are usually repeats but may differ in a detail not shown here. Identical values can stand only once. Like-named read-outs stand apart in the source and are kept apart here. Blank lines part the entries; values can stand above or below the binder they belong to. Bridge positions count the residues as written; N and C are the ends. Square brackets hold non-standard residues; d marks the D form. Trp(1-Me) = Cn1cc(C[C@H](N)C(=O)O)c2ccccc21

Assays:
Assay in all cases: cell-based or functional assay
[1] = molecular target: T1, human complement protein C3 (human, UniProt P01024 23-1663)
T1 sequence (P01024 23-1663 limits assumed): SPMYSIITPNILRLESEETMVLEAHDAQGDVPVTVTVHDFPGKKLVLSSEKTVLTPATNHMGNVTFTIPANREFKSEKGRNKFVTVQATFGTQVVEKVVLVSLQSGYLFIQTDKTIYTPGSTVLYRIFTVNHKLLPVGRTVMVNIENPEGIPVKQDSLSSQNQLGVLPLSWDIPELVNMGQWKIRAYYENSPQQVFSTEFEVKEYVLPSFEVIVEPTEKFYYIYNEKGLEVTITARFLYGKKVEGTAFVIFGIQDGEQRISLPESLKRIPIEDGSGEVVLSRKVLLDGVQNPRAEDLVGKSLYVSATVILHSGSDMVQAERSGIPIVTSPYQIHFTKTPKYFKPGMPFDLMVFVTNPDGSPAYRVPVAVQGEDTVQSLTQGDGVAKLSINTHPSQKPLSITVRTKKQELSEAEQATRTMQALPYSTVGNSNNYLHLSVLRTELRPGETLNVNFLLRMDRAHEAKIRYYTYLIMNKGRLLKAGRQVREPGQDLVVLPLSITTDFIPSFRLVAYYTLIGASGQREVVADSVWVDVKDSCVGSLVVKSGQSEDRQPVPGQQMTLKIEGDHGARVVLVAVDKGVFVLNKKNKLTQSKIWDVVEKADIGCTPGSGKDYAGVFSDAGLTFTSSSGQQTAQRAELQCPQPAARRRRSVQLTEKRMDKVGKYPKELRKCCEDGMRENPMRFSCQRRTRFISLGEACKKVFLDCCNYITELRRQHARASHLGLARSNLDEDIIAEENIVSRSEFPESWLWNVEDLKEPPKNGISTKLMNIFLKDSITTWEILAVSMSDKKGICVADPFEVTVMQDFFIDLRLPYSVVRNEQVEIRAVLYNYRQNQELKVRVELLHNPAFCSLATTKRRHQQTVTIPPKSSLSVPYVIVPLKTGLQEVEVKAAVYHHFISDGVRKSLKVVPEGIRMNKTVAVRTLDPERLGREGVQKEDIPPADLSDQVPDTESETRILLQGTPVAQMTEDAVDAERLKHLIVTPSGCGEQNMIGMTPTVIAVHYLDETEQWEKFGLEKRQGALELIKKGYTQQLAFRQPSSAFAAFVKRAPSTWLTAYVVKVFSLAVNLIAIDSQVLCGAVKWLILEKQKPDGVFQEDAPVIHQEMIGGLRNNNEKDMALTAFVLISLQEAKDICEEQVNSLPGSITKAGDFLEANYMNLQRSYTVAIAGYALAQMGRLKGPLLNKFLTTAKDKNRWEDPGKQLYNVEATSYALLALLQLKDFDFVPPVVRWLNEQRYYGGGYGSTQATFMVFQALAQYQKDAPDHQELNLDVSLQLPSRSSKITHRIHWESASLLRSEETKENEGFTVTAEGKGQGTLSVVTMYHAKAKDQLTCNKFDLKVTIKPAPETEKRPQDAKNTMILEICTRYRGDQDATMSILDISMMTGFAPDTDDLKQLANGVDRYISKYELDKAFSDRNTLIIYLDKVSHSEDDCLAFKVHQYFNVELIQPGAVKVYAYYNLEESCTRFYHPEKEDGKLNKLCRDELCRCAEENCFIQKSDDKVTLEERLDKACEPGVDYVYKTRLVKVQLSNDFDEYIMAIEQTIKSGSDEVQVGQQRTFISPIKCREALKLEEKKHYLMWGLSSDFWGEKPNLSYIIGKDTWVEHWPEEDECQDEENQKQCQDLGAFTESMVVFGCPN

[2] = molecular target: T1, human complement protein C3; remark: listed apart in the source
[3] = molecular target: T1, human complement protein C3; remark: listed apart in the source
[4] = molecular target: T1, human complement protein C3; remark: listed apart in the source

IC50 (assay not named in Table 7; preliminary C3b ELISA by paragraph 235) [1]: 300000 nM | RPE cell assay medium C5b-9 ELISA, % of positive control (peptide at 1 µM) [2]: 50 % of positive control | RPE cell-based assay, confocal imaging of deposit-associated C5b-9, % of positive control (peptide at 1 µM) [2]: 20 % of positive control | C3b ELISA IC50 [3]: 1400 nM and 500 nM | C5b-9 ELISA IC50 [3]: 1100 nM and 600 nM | C3b ELISA IC50 [4]: 1420 nM | C5b-9 ELISA IC50 [4]: 1070 nM
B1: Peptide III, Ac-RCVme…-NH2 (peptide)
peptide: Ac-RCV[Trp(1-Me)]QDWGAHRCT-NH2
modifications: disulfide 2-12
SMILES: CC(=O)N[C@@H](CCCNC(=N)N)C(=O)N[C@H]1CSSC[C@@H](C(=O)N[C@H](C(N)=O)[C@@H](C)O)NC(=O)[C@H](CCCNC(=N)N)NC(=O)[C@H](Cc2c[nH]cn2)NC(=O)[C@H](C)NC(=O)CNC(=O)[C@H](Cc2c[nH]c3ccccc23)NC(=O)[C@H](CC(=O)O)NC(=O)[C@H](CCC(N)=O)NC(=O)[C@H](Cc2cn(C)c3ccccc23)NC(=O)[C@H](C(C)C)NC1=O
Hemolytic assay IC50 [4]: 2250 nM

IC50 (assay not named in Table 7; preliminary C3b ELISA by paragraph 235) [1]: 620000 nM | RPE cell assay medium C5b-9 ELISA, % of positive control (peptide at 1 µM) [2]: 44.6 % of positive control | RPE cell-based assay, confocal imaging of deposit-associated C5b-9, % of positive control (peptide at 1 µM) [2]: 14.8 % of positive control | C3b ELISA IC50 [3]: 1700 nM and 600 nM | C5b-9 ELISA IC50 [3]: 1100 nM and 600 nM | C3b ELISA IC50 [4]: 1740 nM | C5b-9 ELISA IC50 [4]: 1130 nM
B2: Peptide VI, Ac-RS-ICVme…-NH2 (peptide)
peptide: RSICVXQDWGAHRCT
modifications: N-terminal acetyl; C-terminal amide; disulfide bridge Cys2-Cys12; meW (Trp methylated at the indole amide position) at position 4 (filing's numbering from -1; 6th residue of the chain)
Hemolytic assay IC50 [4]: 2230 nM

IC50 (assay not named in Table 7; preliminary C3b ELISA by paragraph 235) [1]: 250000 nM | RPE cell assay medium C5b-9 ELISA, % of positive control (peptide at 1 µM) [2]: 61.4 % of positive control | RPE cell-based assay, confocal imaging of deposit-associated C5b-9, % of positive control (peptide at 1 µM) [2]: 55.3 % of positive control | C3b ELISA IC50 [3]: 2600 nM and 1100 nM | C5b-9 ELISA IC50 [3]: 2000 nM and 1000 nM | Lysis IC50 [3]: 3300 nM and 1200 nM | C3b ELISA IC50 [4]: 2580 nM | C5b-9 ELISA IC50 [4]: 2020 nM
B3: Peptide I, Ac-RCVWQDWGAHRCT-NH2 (peptide)
peptide: Ac-RCVWQDWGAHRCT-NH2
modifications: disulfide 2-12
SMILES: CC(=O)N[C@@H](CCCNC(=N)N)C(=O)N[C@H]1CSSC[C@@H](C(=O)N[C@H](C(N)=O)[C@@H](C)O)NC(=O)[C@H](CCCNC(=N)N)NC(=O)[C@H](Cc2c[nH]cn2)NC(=O)[C@H](C)NC(=O)CNC(=O)[C@H](Cc2c[nH]c3ccccc23)NC(=O)[C@H](CC(=O)O)NC(=O)[C@H](CCC(N)=O)NC(=O)[C@H](Cc2c[nH]c3ccccc23)NC(=O)[C@H](C(C)C)NC1=O
Hemolytic assay IC50 [4]: 3330 nM
